Laboratory results taken from patent publication US20190032033A1.

Target: β1AR-84 (minimally thermostabilised turkey β1 adrenergic receptor construct) (turkey), P07700
Assay: cell-based or functional assay

β1AR-84 (minimally thermostabilised turkey β1 adrenergic receptor construct) (turkey), P07700, sequence (P07700 other isoform, or with tags, fused parts or gaps): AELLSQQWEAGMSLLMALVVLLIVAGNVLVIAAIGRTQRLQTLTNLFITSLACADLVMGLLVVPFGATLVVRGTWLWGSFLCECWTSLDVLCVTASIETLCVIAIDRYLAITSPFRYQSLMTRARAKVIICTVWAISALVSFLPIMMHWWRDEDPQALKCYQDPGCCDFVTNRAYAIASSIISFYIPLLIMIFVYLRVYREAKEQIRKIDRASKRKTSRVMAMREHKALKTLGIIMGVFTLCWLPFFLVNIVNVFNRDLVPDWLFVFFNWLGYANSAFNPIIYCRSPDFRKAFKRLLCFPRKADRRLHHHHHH

B1: Mini Gs393, P04896 26-394 (protein)
chain: GIEKQLQKDKQVYRATHRLLLLGADNSGKSTIVKQMRILHGGSGGSGGTSGIFETKFQVDKVNFHMFDVGGQRDERRKWIQCFNDVTAIIFVVDSSDYNRLQEALNDFKSIWNNRWLRTISVILFLNKQDLLAEKVLAGKSKIEDYFPEFARYTTPEDATPEPGEDPRVTRAKYFIRDEFLRISTASGDGRHYCYPHFTCAVDTENARRIFNDCRDIIQRMHLRQYELL
isoprenaline Ki of DDM-solubilised β1AR-84 (alone […] µM): 0.0047 µM | isoprenaline Ki of membrane-embedded β1AR-84 (alone […] µM): 0.0036 µM | isoprenaline Ki of β1AR-84 with 0.25 mM GTPγS (alone 3.0 µM): 5.2 nM
